Substitutions are numbered along the chain they refer to. Names may count otherwise. “And” between values parts separate entries of the source, which are not always exact repeats. Identical values can stand only once.
B1: Cas1 from Escherichia coli K12 (MG1655), untagged, purified (enzyme, E. coli K12 (MG1655))
chain: MTWLPLNPIPLKDRVSMIFLQYGQIDVIDGAFVLIDKTGIRTHIPVGSVACIMLEPGTRVSHAAVRLAAQVGTLLVWVGEAGVRVYASGQPGGARSDKLLYQAKLALDEDLRLKVVRKMFELRFGEPAPARRSVEQLRGIEGSRVRATYALLAKQYGVTWNGRRYDPKDWEKGDTINQCISAATSCLYGVTEAAILAAGYAPAIGFVHTGKPLSFVYDIADIIKFDTVVPKAFEIARRNPGEPDREVRLACRDIFRSSKTLAKLIPLIEDVLAAGEIQPPAPPEDAQPVAIPLPVSLGDAGHRSS
B2: Cas2 from Escherichia coli K12 (MG1655), untagged, purified (enzyme, E. coli K12 (MG1655))
chain: MSMLVVVTENVPPRLRGRLAIWLLEVRAGVYVGDVSAKIREMIWEQIAGLAEEGNVVMAWATNTETGFEFQTFGLNRRTPVDLDGLRLVSFLPV
B3: Cas1 R252E, purified (enzyme, E. coli K12 (MG1655))
chain: B1 chain with R252E

Assays:
[1] = biological target: B2; test: ITC
[2] = biological target: B2; test: AUC
crystal structure = biological target: the molecule itself; test: crystal structure
[3] = biological target: B1; test: ITC
SEC = biological target: the molecule itself; test: SEC

Binder: B1
- KD of a single run [1]: 0.308 µM and 0.212 µM and 0.351 µM
- stoichiometry N [1]: ~1.5 Cas1 to Cas2
- stoichiometry N [2]: 1 Cas1 dimer per Cas2 dimer
- stoichiometry N (crystal structure): 2

Binder: B2
- Kd [3]: ~0.29 µM
- stoichiometry N (crystal structure): 2

Binder: B3
- stoichiometry N (SEC): 2

Reference: PMC4075942 (Nature structural & molecular biology, 2014)
